Test results as given in doi:10.1101/2025.09.18.677151.

Biological target: T1, E. coli TatC (subunit of the overexpressed TatBC complex) (E. coli), P69423
T1 chain: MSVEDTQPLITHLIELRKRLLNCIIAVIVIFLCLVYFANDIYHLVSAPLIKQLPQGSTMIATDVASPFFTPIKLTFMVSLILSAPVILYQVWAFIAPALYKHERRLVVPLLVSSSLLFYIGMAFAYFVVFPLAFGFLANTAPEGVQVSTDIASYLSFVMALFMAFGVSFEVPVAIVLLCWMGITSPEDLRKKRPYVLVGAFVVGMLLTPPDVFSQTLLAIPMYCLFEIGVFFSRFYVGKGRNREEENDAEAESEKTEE
Assay: cryo-EM structure
Conditions: remark: other sources report otherwise

stoichiometry N: 3
B1: E. coli TatC (subunit of the overexpressed TatBC complex), P69423 1-258 (natural protein)
chain: T1 chain
